Results as given in patent publication US20210079110A1 (SCHOOL JURIDICAL PERSON THE KITASATO INSTITUTE, published 2021).

Columns and labels:
[1] = biological target: T1, Kitakyushu lung cancer antigen-1 (KK-LC-1) protein (human (tissue slices of patients), UniProt Q5H943 1-113); assay: immunohistochemical staining of formaldehyde-fixed tissue slices
T1 construct: Endogenous protein in formaldehyde-fixed tissue slices (testis, seminoma, gastric tissue) stained by immunohistochemistry; also called NP_001017978.1
T1 sequence: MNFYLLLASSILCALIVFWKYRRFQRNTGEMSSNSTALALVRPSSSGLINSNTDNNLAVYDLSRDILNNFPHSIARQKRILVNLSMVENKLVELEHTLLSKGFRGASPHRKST
Source text: Tissue slices of a normal region and a tumor region of a patient suffering from a testicular tumor and tissue slices of a normal region and a tumor region in a gastric tissue of a patient suffering from a gastric cancer, which are fixed with formaldehyde, were stained by using the produced monoclonal antibodies.

[2] = biological target: T2, peptide having the amino acid sequence set forth in SEQ ID NO: 1; assay: ELISA on immobilized peptide (Experimental Example 2) and absorption operation (Experimental Example 4)
T2 construct: Immunogen; immobilized on a 96-well plate in the ELISA and used for the absorption operation at 0.05 mg/mL; also called immunized peptide; peptide used for the immunization of the mouse
T2 peptide: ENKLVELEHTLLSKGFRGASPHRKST
Procedure: Reactivity of a monoclonal antibody was confirmed by an ELISA method using an immunized peptide as an antigen. Specifically, first, the peptide having the amino acid sequence set forth in SEQ ID NO: 1 was immobilized on a 96-well plate. Moreover, as a control, a 96-well plate in which only blocking was performed without immobilizing the peptide was used. A skim milk solution was used for the blocking.
Subsequently, the 96-well plate was blocked, a culture supernatant of each established hybridoma cell line was added thereto, and a reaction was performed. Moreover, for comparison, wells reacted with a normal mouse serum were also prepared. Next, the unreacted monoclonal antibody was washed off, the resultant was reacted with an anti-mouse secondary antibody, and a chromogenic substrate was added to develop color. Then, absorbance of each well was measured using a plate reader.
For the absorption operation of the monoclonal antibody, the peptide having the amino acid sequence set forth in SEQ ID NO: 1 was used at a final concentration of 0.05 mg/mL. Moreover, the absorption operation was performed overnight at 4° C. [0090] (a) to (d) of FIG. 3 are photographs showing results of immunohistochemical staining. In each case, a magnification was 200 times. […]

SEQ ID NO 69 = biological target: T3, SEQ ID NO 69; assay: peptide array of 15-mers, antibody diluted to 1/100 and 1/500
T3 construct: 15-residue KK-LC-1 peptide of the peptide array
T3 peptide: KLVELEHTLLSKGFR
Source text: (§1) An antigen of the monoclonal antibody produced by the hybridoma cell line (accession number: NITE BP-02527) was identified by epitope mapping. Specifically, first, 73 types of 15-amino acid residue peptides in which a position on an N-terminus side was shifted by one amino acid residue each were synthesized based on the amino acid sequence of the KK-LC-1 protein to produce a peptide array. Amino acid sequences of the 73 types of peptides are shown in SEQ ID NOs: 13 to 85, respectively.
(§2) Subsequently, the peptide array was reacted with a monoclonal antibody to identify peptides having reactivity. The monoclonal antibody was diluted to 1/100 and 1/500 and the resultants were each reacted.

[3] = biological target: T4, LSMVENKLVELEHTL (SEQ ID NO: 63); assay: as above
T4 construct: 15-residue KK-LC-1 peptide of the peptide array
T4 peptide: LSMVENKLVELEHTL
Source text: as §1, §2

SEQ ID NO 64 = biological target: T5, SEQ ID NO 64; assay: as above
T5 construct: 15-residue KK-LC-1 peptide of the peptide array
T5 peptide: SMVENKLVELEHTLL
Source text: as §1, §2

[4] = biological target: T6, VELEHTLLSKGFRGA (SEQ ID NO: 71); assay: as above
T6 construct: 15-residue KK-LC-1 peptide of the peptide array
T6 peptide: VELEHTLLSKGFRGA
Source text: as §1, §2

SEQ ID NO 65 = biological target: T7, SEQ ID NO 65; assay: as above
T7 construct: 15-residue KK-LC-1 peptide of the peptide array
T7 peptide: MVENKLVELEHTLLS
Source text: as §1, §2

SEQ ID NO 66 = biological target: T8, SEQ ID NO 66; assay: as above
T8 construct: 15-residue KK-LC-1 peptide of the peptide array
T8 peptide: VENKLVELEHTLLSK
Source text: as §1, §2

SEQ ID NO 68 = biological target: T9, SEQ ID NO 68; assay: as above
T9 construct: 15-residue KK-LC-1 peptide of the peptide array
T9 peptide: NKLVELEHTLLSKGF
Source text: as §1, §2

SEQ ID NO 70 = biological target: T10, SEQ ID NO 70; assay: as above
T10 construct: 15-residue KK-LC-1 peptide of the peptide array
T10 peptide: LVELEHTLLSKGFRG
Source text: as §1, §2

SEQ ID NO 67 = biological target: T11, SEQ ID NO 67; assay: as above
T11 construct: 15-residue KK-LC-1 peptide of the peptide array
T11 peptide: ENKLVELEHTLLSKG
Source text: as §1, §2

Measured: binding result

B1: monoclonal antibody produced by the hybridoma cell line having an accession number of NITE BP-02527 (antibody, V domains shown)
VH: EVQLQQSGPELVKPGASVKMSCKTSGYTSTEYTMHWVKQSHGQSLEWIGVIYPNNGDTSYNQKFRGKATLTVDKSSNTAYMELRSLTSEDSAVYYCARLGWQGFANWGQGTLVTVSA
VL: DIVMTQAAPSVPVTPGESVSISCRSSKSLLHSNGNTFLYWFLQRPGQSPQLLIYRMSNLASGVPDRFSGSGSGTAFTLRISRVEAEDVGVYYCMQHLEYPLTFGAGTKLELK
notes: Mouse hybridoma antibody, used as culture supernatant; also called 34B3; 277 34B3 20170123
binds: all assays above
